Nine molecules from US20260242419A1, “A CYCLIC PEPTIDE FOR TRAPPING INTERLEUKIN-1 BETA” (Merck Sharp & Dohme LLC, priority 2023, published 2026) can be followed below.

First the molecules themselves.
B1: SEQ ID NO 370 (peptide)
peptide: cyclo([TyrEtNAc][Ala(1-bicyclo(1.1.1)pentyl)][Phe(4-COOH)]G[Pro(cis-4-F)][Trp(βS-Me,4-F)][Aib]SW[d(αMeD)][Ala(4-THP)]Q[Dab]G[dPro(3S-(4-F-Bn))])
SMILES: CC(=O)NCCOc1ccc(C[C@@H]2NC(=O)[C@H]3[C@@H](Cc4ccc(F)cc4)CCN3C(=O)CNC(=O)[C@H](CCN)NC(=O)[C@H](CCC(N)=O)NC(=O)[C@H](CC3CCOCC3)NC(=O)[C@@](C)(CC(=O)O)NC(=O)[C@H](Cc3c[nH]c4ccccc34)NC(=O)[C@H](CO)NC(=O)C(C)(C)NC(=O)[C@H]([C@@H](C)c3c[nH]c4cccc(F)c34)NC(=O)[C@@H]3C[C@H](F)CN3C(=O)CNC(=O)[C@H](Cc3ccc(C(=O)O)cc3)NC(=O)[C@H](CC34CC(C3)C4)NC2=O)cc1
B2: SEQ ID NO 373 (peptide)
peptide: cyclo([TyrEtNAc][Ala(1-bicyclo(1.1.1)pentyl)][Phe(4-CONH2)]G[Pro(cis-4-F)][Trp(βS-Me,4-F)][Aib]SW[d(αMeD)][Ala(4-THP)]Q[Dab]G[dPro(3S-(4-F-Bn))])
SMILES: CC(=O)NCCOc1ccc(C[C@@H]2NC(=O)[C@H]3[C@@H](Cc4ccc(F)cc4)CCN3C(=O)CNC(=O)[C@H](CCN)NC(=O)[C@H](CCC(N)=O)NC(=O)[C@H](CC3CCOCC3)NC(=O)[C@@](C)(CC(=O)O)NC(=O)[C@H](Cc3c[nH]c4ccccc34)NC(=O)[C@H](CO)NC(=O)C(C)(C)NC(=O)[C@H]([C@@H](C)c3c[nH]c4cccc(F)c34)NC(=O)[C@@H]3C[C@H](F)CN3C(=O)CNC(=O)[C@H](Cc3ccc(C(N)=O)cc3)NC(=O)[C@H](CC34CC(C3)C4)NC2=O)cc1
B3: SEQ ID NO 368 (peptide)
peptide: cyclo([TyrEtNAc][4Pal][Phe(4-COOH)]G[Pro(cis-4-F)][Trp(βS-Me,4-F)][Aib]SW[Aib][Ala(pyrimidin-5-yl)]Q[Dab]G[dPro(4R-(4-pyridylmethyl))])
SMILES: CC(=O)NCCOc1ccc(C[C@@H]2NC(=O)[C@H]3C[C@@H](Cc4ccncc4)CN3C(=O)CNC(=O)[C@H](CCN)NC(=O)[C@H](CCC(N)=O)NC(=O)[C@H](Cc3cncnc3)NC(=O)C(C)(C)NC(=O)[C@H](Cc3c[nH]c4ccccc34)NC(=O)[C@H](CO)NC(=O)C(C)(C)NC(=O)[C@H]([C@@H](C)c3c[nH]c4cccc(F)c34)NC(=O)[C@@H]3C[C@H](F)CN3C(=O)CNC(=O)[C@H](Cc3ccc(C(=O)O)cc3)NC(=O)[C@H](Cc3ccncc3)NC2=O)cc1
B4: SEQ ID NO 374 (peptide)
peptide: cyclo([TyrEtNAc][Ala(1-bicyclo(1.1.1)pentyl)][Phe(4-COOH)]G[Pro(cis-4-F)][Trp(βS-Me,4-F)][Aib]SW[d(αMeD)][Ala(4-THP)]Q[Dab]G[dPro(4R-(4-pyridylmethyl))])
SMILES: CC(=O)NCCOc1ccc(C[C@@H]2NC(=O)[C@H]3C[C@@H](Cc4ccncc4)CN3C(=O)CNC(=O)[C@H](CCN)NC(=O)[C@H](CCC(N)=O)NC(=O)[C@H](CC3CCOCC3)NC(=O)[C@@](C)(CC(=O)O)NC(=O)[C@H](Cc3c[nH]c4ccccc34)NC(=O)[C@H](CO)NC(=O)C(C)(C)NC(=O)[C@H]([C@@H](C)c3c[nH]c4cccc(F)c34)NC(=O)[C@@H]3C[C@H](F)CN3C(=O)CNC(=O)[C@H](Cc3ccc(C(=O)O)cc3)NC(=O)[C@H](CC34CC(C3)C4)NC2=O)cc1
B5: SEQ ID NO 371 (peptide)
peptide: cyclo([TyrEtNAc][Ala(1-bicyclo(1.1.1)pentyl)][Phe(4-COOH)]G[Pro(cis-4-F)][Trp(βS-Me,4-F)][Aib]SW[d(αMeS)][Ala(4-THP)]Q[Dab]G[dPro(3S-(4-F-Bn))])
SMILES: CC(=O)NCCOc1ccc(C[C@@H]2NC(=O)[C@H]3[C@@H](Cc4ccc(F)cc4)CCN3C(=O)CNC(=O)[C@H](CCN)NC(=O)[C@H](CCC(N)=O)NC(=O)[C@H](CC3CCOCC3)NC(=O)[C@@](C)(CO)NC(=O)[C@H](Cc3c[nH]c4ccccc34)NC(=O)[C@H](CO)NC(=O)C(C)(C)NC(=O)[C@H]([C@@H](C)c3c[nH]c4cccc(F)c34)NC(=O)[C@@H]3C[C@H](F)CN3C(=O)CNC(=O)[C@H](Cc3ccc(C(=O)O)cc3)NC(=O)[C@H](CC34CC(C3)C4)NC2=O)cc1
B6: SEQ ID NO 372 (peptide)
peptide: cyclo([TyrEtNAc][4Pal][Phe(4-COOH)]G[Pro(cis-4-F)][Trp(βS-Me,4-F)][Aib]SW[d(αMeD)][Ala(4-THP)]Q[Dab]G[dPro(3S-(4-F-Bn))])
SMILES: CC(=O)NCCOc1ccc(C[C@@H]2NC(=O)[C@H]3[C@@H](Cc4ccc(F)cc4)CCN3C(=O)CNC(=O)[C@H](CCN)NC(=O)[C@H](CCC(N)=O)NC(=O)[C@H](CC3CCOCC3)NC(=O)[C@@](C)(CC(=O)O)NC(=O)[C@H](Cc3c[nH]c4ccccc34)NC(=O)[C@H](CO)NC(=O)C(C)(C)NC(=O)[C@H]([C@@H](C)c3c[nH]c4cccc(F)c34)NC(=O)[C@@H]3C[C@H](F)CN3C(=O)CNC(=O)[C@H](Cc3ccc(C(=O)O)cc3)NC(=O)[C@H](Cc3ccncc3)NC2=O)cc1
B7: SEQ ID NO 366 (peptide)
peptide: cyclo([Phe(4-(4-Ac-piperazinyl))][4Pal][Phe(4-COOH)]G[Pro(cis-4-F)][Trp(βS-Me,4-F)][Aib]SW[Aib][Ala(pyrimidin-5-yl)]Q[Dab]G[dPro(4R-(4-pyridylmethyl))])
SMILES: CC(=O)N1CCN(c2ccc(C[C@@H]3NC(=O)[C@H]4C[C@@H](Cc5ccncc5)CN4C(=O)CNC(=O)[C@H](CCN)NC(=O)[C@H](CCC(N)=O)NC(=O)[C@H](Cc4cncnc4)NC(=O)C(C)(C)NC(=O)[C@H](Cc4c[nH]c5ccccc45)NC(=O)[C@H](CO)NC(=O)C(C)(C)NC(=O)[C@H]([C@@H](C)c4c[nH]c5cccc(F)c45)NC(=O)[C@@H]4C[C@H](F)CN4C(=O)CNC(=O)[C@H](Cc4ccc(C(=O)O)cc4)NC(=O)[C@H](Cc4ccncc4)NC3=O)cc2)CC1
B8: SEQ ID NO 369 (peptide)
peptide: cyclo([TyrEtNAc][4Pal][Phe(4-COOH)]G[Pro(cis-4-F)][Trp(βS-Me,4-F)][Aib]SW[d(αMeD)][Ala(pyrimidin-5-yl)]Q[Dab]G[dPro(3S-(4-F-Bn))])
SMILES: CC(=O)NCCOc1ccc(C[C@@H]2NC(=O)[C@H]3[C@@H](Cc4ccc(F)cc4)CCN3C(=O)CNC(=O)[C@H](CCN)NC(=O)[C@H](CCC(N)=O)NC(=O)[C@H](Cc3cncnc3)NC(=O)[C@@](C)(CC(=O)O)NC(=O)[C@H](Cc3c[nH]c4ccccc34)NC(=O)[C@H](CO)NC(=O)C(C)(C)NC(=O)[C@H]([C@@H](C)c3c[nH]c4cccc(F)c34)NC(=O)[C@@H]3C[C@H](F)CN3C(=O)CNC(=O)[C@H](Cc3ccc(C(=O)O)cc3)NC(=O)[C@H](Cc3ccncc3)NC2=O)cc1

Starred links: 1 amine or outer side, 2 acyl side, 3 side chain; linkers in the order of their positions; H or OH if unused. Non-standard residues stand in square brackets, D forms with d. TyrEtNAc = (2S)-3-[4-(2-acetamidoethoxy)phenyl]-2-amino-propanoic acid, CC(=O)NCCOc1ccc(C[C@H](N[*:1])C(=O)[*:2])cc1; Phe(4-(4-Ac-piperazinyl)) = CC(=O)N1CCN(c2ccc(C[C@H](N)C(=O)O)cc2)CC1; dPro(4R-(4-pyridylmethyl)) = O=C(O)[C@H]1C[C@@H](Cc2ccncc2)CN1; Trp(βS-Me,4-F) = C[C@@H](c1c[nH]c2cccc(F)c12)[C@H](N)C(=O)O; Ala(1-bicyclo(1.1.1)pentyl) = N[C@@H](CC12CC(C1)C2)C(=O)O; dPro(3S-(4-F-Bn)) = O=C(O)[C@@H]1NCC[C@@H]1Cc1ccc(F)cc1; Ala(pyrimidin-5-yl) = N[C@@H](Cc1cncnc1)C(=O)O; Phe(4-CONH2) = NC(=O)c1ccc(C[C@H](N)C(=O)O)cc1; Phe(4-COOH) = N[C@@H](Cc1ccc(C(=O)O)cc1)C(=O)O; Pro(cis-4-F) = O=C(O)[C@@H]1C[C@H](F)CN1; Ala(4-THP) = N[C@@H](CC1CCOCC1)C(=O)O; d(αMeD) = C[C@@](N)(CC(=O)O)C(=O)O; 4Pal = N[C@@H](Cc1ccncc1)C(=O)O; d(αMeS) = C[C@@](N)(CO)C(=O)O; Dab = NCC[C@H](N)C(=O)O; Aib = CC(C)(N)C(=O)O

The target of this assay is Recombinant human IL-1β (BioLegend 579404) (human, UniProt P01584 117-269). Kind of assay: cell-based or functional assay.
On to B1, for which the “MRC5 IC50” value came out at 0.015 nM. For B2 the value was 0.012 nM; for B3, 0.022 nM. The result for cyclo([TyrEtNAc][4Pal][Phe2Cl4COOH]G[Pro(cis-4-F)][Trp(βS-Me,4-F)][Aib]SW[Aib][Ala(pyrimidin-5-yl)]Q[Dab]G[dPro(4R-(4-pyridylmethyl))]) [SEQ ID NO 367] reads 0.017 nM. As to B4, the “MRC5 IC50” value is 0.017 nM. For B5 the value was 0.014 nM; for B6, 0.009 nM; for B7, 0.021 nM. As to B8, the “MRC5 IC50” value was determined as 0.021 nM.
